Experimental data published in patent publication US20060252692A1, “Inhibitors for use in hemostasis” (ZymoGenetics, Inc., priority 2002, published 2006).

Columns and labels:
[1] = system: carotid artery crush injury, vascular occlusion; experiment: Modified rabbit carotid artery crush injury model; type: in vivo, New Zealand White rabbits; details: 2-13.5 μg/kg
Procedure: Zsig37 was administered in a modified rabbit carotid artery injury model (Folts et al., Circulation 79:116 (1989), and Golino et al., Thrombosis and Haemostasis 67:302 (1992)) to determine the degree of protection offered in preventing vascular occlusion following a crush injury.
Thirty-four male New Zealand White rabbits, approximately three to six months old (R&R Rabbitry; Stanwood, Wash.) were divided into two groups. Fifteen rabbits received doses of zsig37 ranging from 2-13.5 μg/kg and 19 control rabbits were injected with PBS or equivalent amounts of PBS or zsig39, another adipocyte complement related protein (WO99/10492). The rabbits were anesthetized with ketamine (50 mg/kg, IM) and maintained on halothane inhalation anesthesia for the duration of the study. The hair was shaved from the ears and neck and an angiocatheter was placed in the marginal ear vein for IV support. A midline incision was made in the neck and the carotid artery was accessed. Approximately 5 cm of the common carotid artery proximal to the internal/external bifurcation was exposed via blunt dissection away from the surrounding tissue and any visible side branches were cauterized. A flow probe (Transonic Systems, Inc.; Ithaca N.Y.) was placed distal to the anticipated injury site and a baseline blood flow was established. A 2.5-3.0 cm section of the vessel was then isolated from circulation using atraumatic vascular clamps. Following removal of the blood from the vessel segment, 0.4 ml of zsig37 in 0.9% sodium chloride or […] 0.9% sodium chloride as a control, was injected into the empty vessel segment using a 30 G needle. The vessel was left undisturbed for a five-minute pre-injury treatment. A 1.0 cm crush injury was then inflicted into the center of the vessel segment using a guarded hemostat and left undisturbed for 10 minutes. The vessel clamps were then removed and blood flow reestablished. Blood flow was monitored continuously for 60 minutes after which time the rabbits were euthanized and the vessel excised for histological analysis.

[2] = system: RAW 264.7 (ATCC No. CRL-2278); experiment: Binding of zsig37 to RAW 264.7 monocyte/macrophage line; details: mouse monocyte/macrophage line
Source text: This could potentially result in zsig37 involvement in monocyte phagocytosis, microbial killing, and cellular cytotoxicity. Following the two days in culture, there are macrophages present in the culture and zsig37 may be binding preferentially to this subset of cells. Zsig37 also bound to a mouse monocyte/macrophage line, RAW 264.7 (ATCC No. CRL-2278), indicating macrophage specificity.

[3] = system: DA-1 cells; experiment: Proliferation assay on zsig37-coated plates, DA-1; type: cell-based, mouse; details: 5,000 cells/well
Procedure: A second assay was performed with TF-1, DA-1, an IL-3 dependent cell line derived from the lymph node of a mouse with a B-cell lymphoma by outgrowth in IL-3 media, pre-B (p53−/− mouse marrow cells, IL-7 dependent, B220+, Thy1 low, Sca-1+), and A7BaF-3 cell lines as described above at 5,000 cells/well. BHK cells were also plated at 500 cells/well.

[4] = system: TF-1 cells; experiment: Adhesion and spreading of TF-1 cells on zsig37-coated plates; type: cell-based; details: addition of soluble zsig37
Procedure: The ability of zsig37 to stimulate adhesion and spreading of TF-1 cells was assayed as follows. A series of dilutions were prepared from C-terminal Glu-Glu-tagged zsig37, from 10 to 0.0625 ’g/ml, in either PBS or ELISA coating buffer (0.1 M NaCO3) and each was plated into a 96 well plate (Costar; Pleasanton, Calif.) at 100 μl/well. The plates were incubated at 37° C., 5% CO2 for 2 hours. The plates were then washed 3× with RPMI/10% FBS (RPMI 1640, 2 mM L-glutamine, 110 μg/ml sodium pyruvate, PSN and 10% heat inactivated fetal bovine serum) and allowed to block for 15 minutes.
TF-1 cells (derived from acute myeloid leukemia cells) were resuspended in RPMI/10% FBS and plated into at 10,000 cells/well into the zsig37CEE-coated 96 well plates at a final volume of 120 μl/well. The plate was incubated at 37° C. under 5% CO2 for 2 hours. The plates were then washed 3× with PBS and 200 μl/well growth media (RPMI/10% FBS, 5 ng/ml GM-CSF) was added. The cells were microscopically inspected before and after the wash.
A dye incorporation assay was also used to measure the number of adherent cells based on a colorimetric change and an increase in fluorescent signal. ALAMAR BLUE (AccuMed; Chicago, Ill.) was added to the 96 well plates and the cells were incubated at 37° C. under 5% CO2 overnight. […]

[5] = system: platelet rich thrombus formation induced by vascular injury; experiment: Platelet rich thrombus formation induced by vascular injury (Folts Model); type: in vivo, cynomolgus monkeys; details: remained open
Procedure: The effect of zsig37 on platelet rich thrombus formation induced by vascular injury (Folts Model) was also tested with cynomolgus monkeys. In the absence of treatment, blood flow in the vessels decreased to zero flow, indicating an occlusion of the artery. In contrast, cynomolgus monkeys that received the vascular injury and were treated with 1.0 mg/kg zsig37 had vessels that were fully patent by 20 minutes following treatment and remained open. When cynomolgus monkeys received the vascular injury and were treated with 0.5 mg/kg zsig37, their vessels were fully patent by 30 minutes following treatment and then remained open.

B1: zsig37: adipocyte complement related protein homolog, polypeptide of SEQ ID NO:2, inhibits collagen-mediated platelet activation and the complement pathway (protein, listed as Homo sapiens)
chain: MGSRGQGLLLAYCLLLAFASGLVLSRVPHVQGEQQEWEGTEELPSPPDHAERAEEQHEKYRPSQDQGLPASRCLRCCDPGTSMYPATAVPQINITILKGEKGDRGDRGLQGKYGKTGSAGARGHTGPKGQKGSMGAPGERCKSHYAAFSVGRKKPMHSNHYYQTVIFDTEFVNLYDHFNMFTGKFYCYVPGLYFFSLNVHTWNQKETYLHIMKNEEEVVILFAQVGDRSIMQSQSLMLELREQDQVWVRLYKGERENAIFSEELDTYITFSGYLVKHATEP
dose dependency of time patent [1]: No dose dependency was seen | mean percent time patent ([1]; combined zsig37 treated groups, 60 minutes, standard error ±10.3%, controls 13.5%): 37.2% | time patent compared to controls (meta analysis of all doses) ([1]; unpaired t-test P=0.019): significant increase in time patent | binding to RAW 264.7 [2]: bound | growth of DA-1 cells [3]: slightly inhibited growth | block of cell adhesion to bound zsig37 by soluble zsig37 [4]: did not block adhesion | time to fully patent vessels following treatment ([5]; 0.5 mg/kg): ≤ 30 min | time to fully patent vessels following treatment ([5]; 1.0 mg/kg): ≤ 20 min
